Measurements: the domain aggregation screens of Martell et al. (2025)

Assay: soluble fraction after stress (log2 fold change); higher = more stays soluble; pooled small domains, quantitative proteomics
Details: stress: 50 degC
How it was run: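 Pooled custom libraries of small protein domains were each held under stress at 50°C. The read-out, high-throughput quantitative proteomics, tracked how much of each protein stayed soluble. This is reported as a base-two log fold change used to indicate aggregation propensity. Higher values mean more protein remains in solution.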

Sequence	soluble fraction (log2)
HMEEIALTDILNRFLSSLSLEQRKIFMRRYWYLSPIKEIATEYGMSESKIKMSLFRSRNELKKLLEKEGI	-0.396
HMERAFRILELFDLKQDELPITEIAERTGLPISTAHRLLSTLETLGYIAQNPDNGRYRLGLQTFVLGSR	-0.987
HMEEVYVPDIRDKSISDAKKILSQMGLKYRIEGEGYDDSTVIKDQTPKPGALLAKDSVVIAYINE	0.126
HMTTMTTGQRIAAKRKEQGLSQENLGEQLGVSRQAIYKWESDASLPDIDKLIALSRLFGVSTDYLLLE	-0.41
HMFERISELLTDEELAVYKRGRNANASSVPKHADIADYRRATGVEALFGYLYIKGEIDRINQLFELA	-0.23
HMGKRKDFTYTGNYFSEYKNQTFPSLSSFLKLVGKYENYGTIKRRVRFGWDIDEAILRENIN	-0.773
HMLFGKKYLGKVPNDASGRISLWNDIVKHHQELQNIRAIENFTSDNVTVAQGDTKKAVVVTDYVT	-0.0557
HMVPLSPRFFDIFRKRKDLTRQNVDVYFRDHPTEITAFERYIKGLVSQSYIPAERADALLLVASQYKAK	-0.784
HMRLREETRKVDKTGLIQVDGRHYRVPDEYSQKDVQILMDDNSIMVYRKGDFVIELDKETSVYMPH	0.214
HMSIESMVGRFGVVTKDVVANEMAGKVKVGREEFRATADIAVSSGTKVKVTHAEGITLTVVPE	0.378
HMLDVGDQLVKKLKDNDSLDFHFVNSKEANKGLKDGDYYMVITIPSNFSKNATTLLDKNPKKMVLNYTTNP	0.0441
HMVEYFDDENLDAFIGRESDSYTEKEIEQFREILYTMNQKEVADWNRSLTIRGINIPNDLKDEMIMMI	-0.438
HMSGYFSDKKLNELFEQYLIMREKKGKPVVGYQLKILIDRLNQVAANTKEKIEVVSNAIAGDWNTFYPIKR	-0.621
HMTLTEQQITDNYKELRKIINDTFSGLRLDKLNHMYDDLEDRMVVAPASSVEHYHNSKVGGYVEHILHVI	-0.187
HMKSIEVPNLINMTLRKAKIELIDNEFNLDTVIYEYNPNIREGRVSLQIPESGTILKSGSNISIHISKGIP	-1.53
HMNAYEVLIPNIYIGQRVDQTLASLFPQFSRSRLQNWLARGNLLIDGEIIKPKTKVLGGEQIIILDT	-1.83
HMNRTKQIYNELLFRLDQGVYPPESKFPSESQLADEFSVSKVTMNKIVSMLASSGRLSRGVRGAGTFVSSP	-0.775
HMHFIMEYRIRAYVDELFESAPRTQRAYELKIELTQNLIDKYYALVSEGKSEQDAYNLTVMSIGDVREL	-0.298
HMPTLNIVDGHIAASDGVRILSIHNVTGRRYATSSKLPAGIYIVVLMPAKAETPLTVKVIVEA	-1.6
HMKFGEQIKERRQELDLTQAEVAEKLFVTRQAVSNWEHNKTYPDLNMLVKISNVYQISLDSLLR	-1.23
HMKGQNRSEITAGARVKVVQKQDQRTGALTEGIVRDILTRSPHHPHGIKVRLESGIVGRVKDVL	0.0363
HMYKTKVDIAYDMLMERITEGVYKPGEKLVITHISKELGISDIPVREAIRRLESEGYVKILPNQGAIVYD	-0.395
HMTHHGHSIKRIRDMLGIKQETLAAELNMTQQAFSKLEQKEQIEDEMLDKIAKILHVSTEALKT	-0.00336
HMIFEETVFKDIAFGPKNMGLSEAEIKRRVYETAENIGLSQELMERSPFELSGGQKRRVAIAGVMAMEP	0.192
HMSPVKAPLPGVVLDIHVSVGQEVKASDTVVTLEAMKMENAIKAGVDGKVASISVGKGDSVLEGAVLLTI	0.0738
HMVNSIQIHKKLRLDKRAGSDNWYARLTLPNGKRLVKTTKTEDIETAKEVALRLYYEVDARIQNKLPAT	-1.45

Sequence	soluble fraction (log2)
HMAEDGNMTFEEYAKRWLARQVRYAPSTLESYRRMLGRVYPFIGAIPINRLRPIALENLLAELRKRT	-0.48
HMGLYPYSGTPADNQEANERRIFDIYSTHLERIFSDFSGATLRTKRLVLRLMQELVHSDPVRMAGILDEL	0.00204
HMDDINVSNSKNIVPNVTGHTGSKAIPVLENLGLDVQYSGFGKVTNQSIPAGTRFKKGETIYLMLE	0.0979
HMIKNKDRIQYTLAHRKAFRKIEKELLGYNTFRSLFHDLDKVFLYPFFDYKKVHNFHRNHAHH	0.199
HMSERIITFGEATREAMLEEMRADERVFVYGEDIAKQGGIFGQFAGMKDEFPERVLDTPISETALVGAG	0.0621
HMLPLGSNEYETAVIKHLASGVQDADEIQRLTGIDQTSLNTALTMLELAGTIRPLGNNHWTL	0.167
HMGDTISVPAVRTLAYNKAMDILNAEGLKGIVADSVYDNHTAPGTVIEQNPKAGTIVKEGREVFLTIHA	0.103
HMEVKVSGHLEAIGGVYHMKLSWIDDAGKRRRKSKSTGLAERGNKKRANDMLIDFMREQEAEIAASGD	-1.02
HMLNAPFGFRIEDDTLIPIPEEAKVVRQIFRYYLQGMGFGKIAQELNGQDVPGKPWGKERIKYILSNEKYI	-2.09
HMARSVAEFVERGRSGGSLERPKLQRMLEYIQDRPVDFVIVHKIDRLARNRADDAAITKTIRGAGAYLVST	-0.0402
HMPEIFYRKIHRTDHDQIALDAEMIRLLIAIDEKKSLSQIAAEVQMEPMALKKNLGKLIQLGLVEPIK	0.137
HMSQIQIKLDQAIMQLPEKQRFVFMLRYFEELPYEKIAQITETSIGGAKANFHQALKKMQEIIQ	-2.96
HMGKRGKEMQTAVLAILRASDRPYSAYELLESLKDIYPKIAPPTVYRALAALTQRGQIRRLESLNAFI	-0.325
HMATKEQIKRIYGLGAGLGIVGKDKDDMLHELIFSITGKDSVKQLDDSEFKAVQAELINRMKLA	0.132
HMIVNEQEQTFIKAMRDDDFNTILELKMKGYQPSDNVLKSLQPDISSTTFIAAAKIFQMERMLK	0.218
HMGGVSTDKPLNWDADGTSKLTQEQIDYLRSTYDLSDMSKQDYYDLMADLTNMNAISIKDVISQYVK	-0.0536
HMTDFNTFSDAIIAAVGSRASGLKVVDNAVSVMVDVSGLNEDQRVEIEADVRAAAEHAGAQSVRIMLT	-0.438
HMTEPKILTAEESQRLDLILVQQWPELGRRALRELVQQGGVRINGELALKAGQYVQAGERVEVAVP	0.0571
HMETTVSYSGVVTASVLRIRKGPSVSSSVAGTLKKGTGVSIIFEDNGWGKLADGSGWVSLTYIKKNSTP	-0.302
HMDKINQEAIEDEAGLWLAKIDGRQLAQEEVRELIAWMRRSDFHREYLITLARQWDGMAALNKLATLFP	-0.976
HMTGDIIKQERKKKNLTQIELAKKVGISRNALINYEAGTRIPPISVQLKLADVLGIDILDLK	-0.299
HMESVDRIYERVRRYADDVGTAKIPMKELDDDGPLGTAVSRIRERRKRGELTEEWEARFETLPGWTWAA	0.0038
HMDFYVILGVDRAASLSDVKRAYRRLARKHHPDINPGDPESDAFFMRVTEAYETLVDPDRRQEYDEHG	-1.03
HMMNNKEIGTRIAVLRKGMGDSQAKLAERLDVSPQAVSKWETGQSLPDIGNLLKLSWLFRTSINHILEGS	-1.37
HMKGISRVTMELIIDALKKETEPRTVQWIAEKTGLATQTTYRYLQYMVSEQTVEALNVYGKVVSLKAK	-0.314
HMAVNSALVQRNWLIGYRIAEEELQGDNRAEYGASIIKKLAKELTAEYGKGYTKTNLYHFYSFYKT	-0.136

Sequence	soluble fraction (log2)
HMKELTYSDFRKAYPDIQGNLFGMAERYITALDWTEVAAKVETDEELRKERDIFYLVKTYIRKYVQ	-0.487
HMPSGLFEPIKKSELSIESIDLLKDQIRAFKQADIRITFGFLLDLITKGENPAYVNASKLFEQAWER	0.0685
HMNLYERFPIHELWKETFNETLDEEEHITFITSEFKPENIVLGQGFIAAPSKKDAVDWLKVIRTVLIFYDS	-0.941
HMATVHVDGIQYDFSSPEQAKEFAYKWAKKHNLTWEVHGETIHIK	-0.0845
HMSVALSENIKTRRKALKMSQEYVAEQLDISRQAVAKWEAGKSEPTTENLVKLAALFEMSVSELVE	-0.369
HMNLQGIISQKAIVTQTIEPYETGVAKLNGEEWTAMSKDETRIEAGKLVEVVAIEGVKLIVKEVS	-0.0794
HMDGTVRGKTTFQELLDWGVPQERIEAVLGGPIPAPGVVIKDYVTAQGKEFSAVRDALQAEVDAVLK	0.232
HMGSTATVIASRLNMRASASTTGALLTKIPNGATVTVLGTTGAWSHIRYGSYTGYVMSQYLRING	-0.203
HMDQILIHLKEGIDVTDVQPMLKALDLNVRMFNRDKNIIVISVLNRELDAIPQTIAALRPWEELFDSA	-0.00536
HMGSREVPFSDFISKVESGSVLEVVLRGRQVEGLTDANERFQTQIPNYPALFEILERNQVRTRVEPT	0.0852
HMYRPLYQQVYDFLVKQIAAGEWGPGESLPSEQALAGRLNVSQGTVRKALDALAADSLIDRRQGKGTYVAE	-0.0221
HMGKEDLTAAIKKMTLNDKLDIHKIVANFQTNDSEEVITAVKWLMENNYLLKIKNNYTWNTKEK	-0.263
HMRVQELARDLGVEADTLIALLRQMGIPVTGARSAINDAQQAKVLAKIERERRAGHSDPAKAIQAVLEEAS	0.121
HMKITKIWFTADHIFGRDEEGKEYSQSLLWYPKLSAASDEERSQYTFGYDGIHWRSLDEDISFESF	-3.98
HMATIADILAEHKDKEGPLLPVLHDVQKMFGHVSEEAMREIAQALNLTRAEVYGVVSFYHDFRKEVE	-0.975
HMTENIPPVKIEEMRQKWQDIVLLHGVTSGRKIKSGQATYIWLYRNDQNWLLTFNSRHLSQPQV	0.145
HMGVSAGQVRGLIRNLIAGEDKSKPLSDLALERELEKREIRISRRTVAKYRAELGIPNSDQRRYLP	-0.642
HMSAEDQRRASQEAAYRFMQVMAGNEAGFEDAARALFAGDNHRFEVLIQSWPDDVRDHVSLLSVDAFA	-0.615
HMNITHEINVKSKSKIDFLENNKNLAQFFLTKNPNQFNYNLVFSDKSELNIIKEKIESHKDIEDIDIRYG	0.0125
HMHELKIEKVAEAPNGAMRLLLSDGSEWVLGVKSWNRLNLSLEKILDVNVLRALEKESQYHLLRTKALEL	-0.395
HMFTKYSPDFKLSVILDMRKNNLGYGEVVRKYWNLDSYKESDRHRSQVRLWERIFLEEGVEGFM	-4.64
HMDEWDPAILYVGLDYEDAAQIATRLATSGVPYRLSPDGTMITVPDDQVNNMRLTLAGEGFPH	-0.0702
HMTPPLSKIRNMTPDQQRSSVIEARKKGYNLLQLEGLAKAQGATPADLLVLRNAWAQSEFDQKR	0.149
HMLVATFGPTTGWEGREIIWDVDRFILVGHGAVPAAGVLDYDRRGQLIWAQPELRAWVVEVDRWETG	-1.97
